Results reported in the DeepSol protein solubility set.

Experiment: soluble on expression in E. coli; label from the status in PepcDB or PDB records

Soluble on expression in E. coli, not soluble:
MGSDKIHHHHHHMAYFMLLMTTPIQATIQQSMALAKAHYENFPVASVLLPKDLRAPVGLVYAFARQADDFADEGELSPEERLALLDGFRSQLDQIKHGATPDTPLFQALQAMIQERDLPLEPFYDLLSAFSQDVVKARYANFGEVIDYCRRSANPVGRLMLHLYKQATPRNVALSDAICTSLQLINFLQDVDVDYRKNRIYLPLDELQKYNITEQQIAGQHSGGTWSLFMEFQVNRTRKLLQSGAPLGLALPGRIGLEMRMIIAGGERILKKLHHVRGDVFNQRPTLKPTDWAYMLYRAVRKK
MGSDKIHHHHHHMAYRSAPLYEDVIWRTHLQPQDPTLAQAVRATIAKHREHLLEFIRLDEPAPLNAMTLAQWSSPNVLSSLLAVYSDHIYRNQPMMIRENKPLISLWAQWYIGLMVPPLMLALLTQEKALDVSPEHFHAEFHETGRVACFWVDVCEDKNATPHSPQHRMETLISQALVPVVQALEATGEINGKLIWSNTGYLINWYLTEMKQLLGEATVESLRHALFFEKTLTNGEDNPLWRTVVLRDGLLVRRTCCQRYRLPDVQQCGDCTLK
MGSDKIHHHHHHMCQGLMTHSRCVKSNTMFSIRIKAGRKAYEQIRDGGFSCDRISAFFAPAAGPRWLVATGFDLTLLKAGLLGRKKPVQLIGSSSGAWRFAAWVQPEAEKSYLNLMEAYIRIPYHKDDRAGIVLQNLINVVNSYIEDDALPFALAHKHYRLAVLTARVRHLVASESSWIQSSGLFLCFLMNALSRSTLDHFTERVVFYNGPNPPGFCLKSPFRGRFIQLNRTNFKHAILASGAIPLFVAGIRDIYGAPRGVYRDGGLVDYHQTYDFAESDDDMTLFFHHQERIIPGWFDKRLKHRRTPDVLLDHTLMVFPTEDFVSTLPLGKLPDREDFRSFMDDPATRIRNWQEAVRRSAPLGEQFFELVESGKLRSMVERI
MGSDKIHHHHHHMCSVSGVLILNPKNFEKVELKLASILKKAEDRGRDSFGIVVIQKDGTVKVRKSIGKPSEKEELLYGILDEDSRVVIANNRAEPTTEYVRQKTEDDIQPFIGDRYIVTHNGIIANDLELEKKYELKRKTKIDSAILPLLLDKTWDGNLEALKGILEQIKGSFALVIGDKKNPDRIFLAQNFKPLYMAYDHSLESLFFTSLDEYFDAKPFDPVNITKLEPYSVVMVTSNKLITTLPIMEKRKKYRVLVVASGGLDSTVAATKLLREGHEVTLIHFNYHHKAEEKEREAVRKIAEYLQIPLLEINTDLFKIIGHATLIKGGGEIVKDRKGEEGAEFAHEWVPARNLIFFSVSLAIAEAYGYDAIASGINLEEAGAYPDNEMEFIRMLNKLSPYATGPNKRIEILMPVGNLVKHEIVKLGYEIGAPLHLTWSCYEGGQKHCGKCGPCYMRKMAFRINGLKDPVEYDEE
MGSDKIHHHHHHMDAVQLKSFVAVAHEGNLTQAAKRLFLSQPAVSAQIKALEEYVGTPLFRRTGKGMVLTRAGEILLPEAESLLQYKHKLEHFAKTLAGDYSEETSLGIIHPIDSAKLVALTDNIGQTAPKTRLHIQYGMSGEILSRIQHKTLHGGFILGNAAQRGIRSVFLQNLTYALICPQSQYPHLTRSLPQSLQECVWIEMSGVSGSRKHLHQFWRSNRLSPKKQILCDYPQTIIDLVAGGIGVAMVPGNKAEAAAKEGAGVAIIESCRHSMPLNFIYAEEYEDNPHVSLLLECIEKVWGVQAVQPPVVSDN
MGSDKIHHHHHHMDDLMGYVIGETSNTELNFLAKHMPEIGSYVSINYCDLEILGMVESVNQGCKIFEDVYNVKDFEKLKDFENNDSYYTIGKIKILGDVKNMQIPRIPPKPGTEVYDASEKILGEIFSKGTIEIGNLISADSKVKLDVNKLCSRHLAILAITGMGKSNTVSVLLEELNNIHATVLVFDMHREYVEIEAKNSTIRRNIIRPKINVYNMSYDALMSLAGVDPQATVQRAMGRRAMKKIKESKKEVDFNTVDEYINSIINELNYYMGMDEFKSKVDSILTLIMRFEDLMTFKDKITAINYNPIQDIKENYVNIVDISELDESSTDLIISYFTGEILKDRKKVLWDTKVAKPIFIIYEEAHLIVPQNRPTKSKIPISKIAREGRKFGVGICLVSQRPKTLDQESLSQCNNFIISKLIEPSDQKHVQHASENLSEDLLNQLPGLNVGEAVIIGPCLKIPAMVKIKRFEGEYGGEDVKFDELWTTEKEKNIPEFIESNELFNDDL
MGSDKIHHHHHHMDEETRRAVATADEALPTSDALPDAIDTGRVVFGFDGYLDRVREVVADRIDPESHERLATLESFGDRIDRSVAADSSLSFEWLQQGSRTGGHTSHLARAFGGWSFDPVMVGMYGDPVHDAFETEFGEYELHSLGEPGVTDAVEFDDGKLMLTEIGDTMSLDWAELDTAFGHDRLAEKLDGASLLGTGYWSETPDLPTVFDGLRTLWDGIDDPPETVLVDPGDVRKLDADRLRAGREAIGRLDEVTDVVVTSNRAETGVLADAYAGDAERSFADDAEAVFEALEPTWFVGHGVEQSVVVTAAGTDSVAVPSVSDPELTTSSGDHFNAGLGLARIADLSPAAAVVVGNAVAGYFVRTADQPSLADVRAFVDEYLEKF
MGSDKIHHHHHHMDELYIMNPWWRDPEIINTDRHISMFENSTFKYFPENLFKKIPLNKPGIYTIRGPRQVGKTTFLKLYIRKLLRDGVKPSNIFFFTCDAVKDRFELIETMKAYFQIFERKAGETRYLFIDEITAVEDWQKSIKYLVDIGLLENSLLILTGSSAFDLKRSSERLPGRKGYGEDLVYLPLTFGEFLESLGISVERMSVDDIFLKSEEELRILYLKNSFLKEYFVKYLNTGGFPKVIDVFLKEGKIDEITKGVFRDFILGDAEKYLGSRIKVIEIFKKLPDIVGQRFSWNSLVDIFSGAIESVDTIQKYFEYLGYSFILMNVFFVDISRKTVRLKKQKKTYPIDRVVVDIIEEISGKQIKLPQIVEMLTLRHLMGNGKTLPNGMNLYDGPFFWYSDRGNEVDFVFEHGDSLIPVEINFQNNIHRSDYAGMKKVFKKGIVITQDAIFRDENIVAVPAWLFFAVFEGNE
MGSDKIHHHHHHMDFHTGKWLCKQYNLNSFTKVSLLHGGENQTYMFESDKNKFVVRQYREGRYTAEQIEAEIHWLIAIQKQMLVPEVVVNKDGDWVTPVMKDEGSIQYFVVFRFINGNEIIEPKDKDYEKLGSFMRMFHEKTNGVLKSVPQTWRGYERPIYSEKKMIHEPLQCLLNTSFLSYEDKNKCLRIAERIQELTNSIQLREKQFVHGDMHFGNILVDKEDWYLLDFDECGFGYKEFDIGVPRLHLIASGQLEDAWGNFMMGYGENISESAIRLGAASRIFYMAGKIPLRLDIEPIKKNPDHFIRRYIQYAEEELCGETIV
MGSDKIHHHHHHMDFVAVAVHTEYRCNQGWETRAECHWFVSTIRAIMTATQSISLVGGEGDELLMQRYASGDIQAFDTLYRRHKGGLYRYFLRQIGDSQLAEDLYQETWGRVIKAAPAYEISAKFTTWLYRIAHNLLIDHVRAVKPLNEADTLDEEGMALTDSMTPVRSHEHDLKVQALKHCVGLLPQVQKEAFLLSSEMGFTALMISEIASVSLEATKSRIRYAYQSLKTCVAKRLGEDSDER
MGSDKIHHHHHHMDFVDVPAVTRDATILSLRDVSRKLVRELGFMRSTLANSDLAPSAVHAVLEIGMKPGITAKDLATILRLDKSNTSRQIARLEAAGFVERRVSSDDARSSELYLSAEGKSLRARIDRFATSQVSNALRHMAPADQQALLRSLALYANALAQDNAGNAPPATPEAVQIIEGYQPGCIGDIASLHGRFYAAHWGFGAFFEKRVATELAAFAGSLPVDGKALWLYVENGRSLASLAIDGDKTTGIAHLRWFIVDESLHGSGIGRELMARAMRFVETQGFRETHLWTFKGLEAARHLYESHGFRLSEEFEGSQWGTTVTEQRFNRV
MGSDKIHHHHHHMDIKNKIKSIFLPEKNDYLDDEEFEYDIENNEEDLKEDNKVHLNDLSRVKYDYRELKDIENQTEEMCLLAVKQDGTIIEFVKDKTYKVCMEAVKQTYKSLKYITNQNEDICIEAVKQNYRALYYINNKTENVLIEAIKNASTYDVMEVFKFVEEQTEDVCLAFIERASKNDVAEILKGIKEQTPAICLEAVKKDGKSLAYVKEQSNSICLEAVKENYSALSCVKEQTEEICIEAVKQNDFALYYVNEQTEKICMEAVKRSYMALQYVNKQTEEICLEAVRIDGRALQYVKEQTEEICLESVRQNGKVLQYVKKQTENICIEAVRGSFEELEIKEILSYVKIPTERIFVEAVKQNGKILKYVENQTELICLEAVRENYNALAYVKEQTEKICLEAVNQSYEALKYVKEQTEEVCLKAVKQDYRMLKYVNNQTEKICLEAVKQNYRALEFVDNQTEKVCLEAVKQNRKALQYVKQKQS
MGSDKIHHHHHHMDIRSLKMYLHLCDSLHFAKTAEQSHVSPSTLSRALQRLEDEVGSKLFDRDNRSVTITHAGVEFKRFAEQTLSEWTQLRSRIDPSQQFLRGNLNLYCSVTAAYSHLPALLDRFRREHPHVDINLNTGDPANAVNQIQKNRADIAIIALPEAFPSSLHFTPIDKVPISVIAPTIQCQVQQWVSQAKIDWAKLPYIVPDHGPGRKRIDLWFKQMGIKPNIYAQVSGQEAIVSMVALGCGVGISPEAVIHNSPVRDRIQTLASPIPIPPFELGCCCKEKRTNDPIIRAFLDII
MGSDKIHHHHHHMDIRVLRYFVVIAQEQNISRAATLLNVSQPALSRQIADLEDELGTKLFTRAHRHIQLTQEGHYLLERALQIIGLVDKTTYNLQKQDVVSGTLDIGAGESVGIMPVMEAAQQIMRQYPDVRVNLRSADAEPILADLDAGILEFGIIMGNRPLNNYNTLVLPAKNHWCAIMRADEPLAQQKEIRPIDLVGRPLITSRQAYKHGLFQKWSNTLYDQLNFVGTFNLAFNGSLLVKTGAAIALLYDQLVDVSPTSGLVARPLNPDMSEANTLIWSKNRNLPNLNRLFLDTLQKNLAQQGGSDA
MGSDKIHHHHHHMDKAFPSGLAVGIFDHLDEDGPDIARQYEDRLMLAEACDHLGFYAYHLAEHHCTPHGRGPSPNLFLSSVAQRTRRLRVGPLVMLLALYHPLRAFEEICMLDQLSGGRLELGIGRGSLPIELGYFGIGSDAAPNHYAEASEILINALKGGTLSYQGRHFELNSVPLTLRTHQRPHPPTWIATNRPESAVWAAANGVNIACVGPSSSVRRITDAFRREHTSEADDQTPFLGLLRMVVIGRSETDARSLAAPAYERWLKSFKFLYDLNGMPTPPNLPLTFDAAIEKELCVVGTAASAGHALLEQLEAAGANYLLCQPAFGNLSLDASLYTATAIQSAIMARVG
MGSDKIHHHHHHMDKKTYKLLRTLTHLSKDLYNLTLYTVKQHYELNGTFLPFVKAYHMVKDSEPYKLLPSQVAQQTMKIVERNFRSFFHVLKERKKGNYNRPVRPPKYLPKNGHFILIFPYQSFRVKEDRIILTLGKNFAEKYGVKHLEIPLPKNVKGHRIKEIRILPRYNALWFEVEYVYEVLPEERDLDRSKYLAIDLGLDNFATCVSTTGTAFIIEGRGLKSFNRWWNKEKAKLQSQYDKQGVKFGKRMVWLLKKRKNVVNDFMNKAVSYIVNYCLENGIGNVVIGELKGVKQNTDLGRRNNQNFHYIPYGLFKQKLKAKCERYGINYIEVDEAYTSKVDALTLEPIEKREKYLGKRGETWTVPVFRWCFNKC
MGSDKIHHHHHHMDLVEEILRLKEERNAIILAHNYQLPEVQDIADFIGDSLELARRATRVDADVIVFAGVDFMAETAKILNPDKVVLIPSREATCAMANMLKVEHILEAKRKYPNAPVVLYVNSTAEAKAYADVTVTSANAVEVVKKLDSDVVIFGPDKNLAHYVAKMTGKKIIPVPSKGHCYVHQKFTLDDVERAKKLHPNAKLMIHPECIPEVQEKADIIASTGGMIKRACEWDEWVVFTEREMVYRLRKLYPQKKFYPAREDAFCIGMKAITLKNIYESLKDMKYKVEVPEEIARKARKAIERMLEMSK
